The values below come from patent publication US20230257435A1, “Wound Healing Composition and Uses Thereof” (AGENCY FOR SCIENCE, TECHNOLOGY AND RESEARCH, priority 2020, published 2023).

One assay deals with MMP12. Nature of the assay: MMP12 levels in HaCaT cells (Western blot / immunostaining). Type of assay: cell-based, human. The protocol: Tissue culture plates were coated with Col-T-gel (Fischer Scientific) of stiffness ranging from 0.8 KPa (soft) to 30 KPa (stiff) as per manufacturer recommendations and allowed to solidify for 40 min at 37° C. inside tissue culture incubators. Some experiments were performed with cells seeded on the poly-hydrogel plates of defined stiffness: 0.2 kPa and 16 kPa soft and hard polyhydrogels, respectively (CytoSoft, Advanced Biomatrix, Inc.,). The determination of stiffness of silicone substrates were done by the manufacturer as per previously published protocols. For certain experiments, indicated amounts of sAgrin was incorporated into the 0.8 KPa collagen gels before gelation process. Upon gelation, trypsinized cells or excised mouse skin explants were plated onto the gels of different stiffness either alone or containing sAgrin. The cells/tissues were incubated under standard culture condition with 500 μl recommended culture medium for the indicated days. The crossbow shaped micropatterns with fibronectin coated islands were generated by microlithography on a 19.5×19.5 mm coverslide from Cytoo, Inc., France. The micropatterns had surface areas of 800μ^2 or 1600μ^2, respectively. Fifty thousand cells after initial siRNA treatment was placed on the micropatterns for 4-6 h before processing them for immunofluorescence. For some experiments, 10 μg/ml sAgrin was added on the slides 18 h prior to the addition of cells.
Indicated cells post-manipulation were washed twice with cold Phosphate buffered saline (PBS) and lysed with cold 1% NP-40 lysis buffer supplemented with 1× protease inhibitor cocktail (Roche Applied Biosciences) for 15 mins at 4° C. The cell lysate was centrifuged at 13,000 rpm for 15 min. This was followed by protein estimation using Bradford reagent. Subsequently, […] of total protein was mixed with an equal volume of 2× Laemmli sample buffer and heated at 95° C. for 5 mins. This was followed by resolution with SDS-PAGE gel. The resolved proteins were transferred onto nitrocellulose membrane and blocked in 5% skimmed milk reconstituted in 1×PBS containing 0.1% Tween-20, and probed overnight with the respective primary antibody. The membrane was then washed with 1×PBS supplemented with 0.1% Tween-20: three times at 15 min intervals. This was followed by 1 h incubation in conjugated horseradish peroxidase HRP secondary antibody (Santa Cruz Biotechnology). […] The density of the various bands was quantified using the Image-J software.
Cells were cultured on eight-well chamber slides or coverslips over-night. […] The images were processed and analyzed by Zen blue software. […]
Background: In western blotting, separated proteins are transferred to a membrane and probed.

For a further assay, the system named is mouse skin punch wounds. The assay is described as follows: Punch-biopsy wound healing model, splinted. Format: in vivo. The protocol:
Six to eight to week old female experimental ICR (nomenclature: IcrTac:ICR) mice purchased from InVivos were used for punch-biopsy wound healing in vivo assays. In the ex-vivo mouse skin explant assay, random ratios of male and female new born ICR mouse pups were used. Wherever possible, the experiments were performed taking into consideration an ethical and reductionist approach of animal usage. Animal studies were not performed in a blinded fashion. The animals were randomly assigned to different experimental groups. The number of animals used for each experiment is indicated in the legend as n=x mice per group. All animal experiments performed were done in accordance with experimental protocols reviewed by the Biological Resource Center (BRC), Agency for Science Technology and Research (A*STAR) under strict compliance to the Institutional Animal Care and Use Committee (IACUC) guidelines for ethical use of animal models in biological research.
The mice were housed under standard conditions of 21° C. and a 12 h light-dark cycle with free access to food. Subsequently, the mice were intraperitoneally (i.p.) anesthezised using Ketamine 100 mg/kg and Xylazin 10 mg/kg diluted in […] of saline solution. The fur was shaved from the base of the neck towards the back on the entire shoulder region. The skin was wiped with an alcohol swab and 10% povidone-iodine (Betadine) antiseptic solution. Circular symmetrical 4 mm wounds were inflicted on either side of the midline in the shoulder region using a sterile 4 mm punch biopsy needle (Integra Miltex, Integra York, P.A., Inc.). The wound skin was carefully removed using a scalpel and a pair of scissors to generate a full-thickness wound that were left open for topical administrations during the analysed time periods. For splinted wound healing models, a 10 mm transparent donut shaped nylon sheet (Grace Bio-Laboratories, Bend, Oreg.) was placed around the 4 mm wound. The splint was placed with the wound at the center, glued to the skin by adhesive (Krazy Glue®; Elmer's Inc.), and covered by Tegaderm dressing. The wounds were treated with different formulations based on either petroleum jelly (Vaseline), a thermoresponsive hydrogel (Pluronic F127-Sigma) or a commercially available skin ointment (Aquaphore-Beiersdorf, Inc.). For Vaseline based ointment cream preparation, 10 mg per cm^2 vaseline ointment was mixed with filtered PBS solutions containing the indicated amounts of Agrin (100 μg, 200 μg or 500 μg) and 100 μg BSA (w/w) were used and applied topically every two days. For siRNA mediated knockdown experiments, 75 nM of indicated siRNAs were incubated with lipofectamine in PBS. Subsequently, a 1:1 mixture of PBS (containing the siRNAs): Aquaphore was applied topically on the wound region every two days. A topical formulation comprising of 20% (w/w) Pluronic F127 (Sigma) was used to dissolve in sterile and 0.22μ filtered solution containing a final concentration of 200 μg/ml sAgrin or BSA. This mixture was dissolved overnight at 4° C. to ensure that liquid phase is achieved. The mixture forms a homogenous gel at temperatures above ˜20° C. and was dispersed topically to cover the wound. Wound closure was assessed using a Vernier caliper every alternate day. For both models, the animals were caged individually throughout the observed time-points of healing at the institutional animal facility. All wound healing animal experiments performed were done in accordance with experimental protocols reviewed by the Biological Resource Center (BRC), Agency for Science Technology and Research (A*STAR) under strict compliance to the Institutional Animal Care and Use Committee (IACUC) guidelines for ethical use of animal models in biological research.
Human skin equivalents and mice skin tissues were harvested, embedded, and subjected to routine histology using Hematoxylin and Eosin. For immunostaining, the tissues were fixed for 24 h in 10% neutral buffered formalin solution. […]

B1: sAgrin: C-terminus recombinant Agrin fragment containing 8 amino acid 'Z8' insert and LG3 domain (SEQ ID NO: 7), His-tagged, expressed in E. coli (protein)
chain: DTLAFDGRTFVEYLNAVTESELANEIPVEKALQSNHFELSLRTEATQGLVLWSGKATERADYVALAIVDGHLQLSYNLGSQPVVLRSTVPVNTNRWLRVVAHREQREGSLQVGNEAPVTGSSPLGATQLDTDGALWLGGLPELPVGPALPKAYGTGFVGCLRDVVVGRHPLHLLEDAVTKPELRPCPTP
modifications: His tag
As to B1, the “MMP12 levels on soft matrix, exposure time series” value in the assay on MMP12 (10 μg/ml sAgrin) is on record as “increased MMP12 levels”. The “MMP12 protein levels on soft substrates, concentration series” value with MMP12 (0.8 kPa, increasing sAgrin, 18 h) is given as “strongly stabilized MMP12 protein levels in a dose-dependent fashion”. Moreover, in the assay with MMP12 (6 h post-wound scratch, sAgrin 10 μg/ml), the “MMP12 and Agrin at the leading migrating front” value was “further heightened”. Moreover, the “MMP12 levels in Agrin knockdown cells on stiff ECM” value in the assay with MMP12 (increasing sAgrin, 18 h, dose-dependent) is “restored their MMP12 levels”. Moreover, the “wound healing, Pluronic F127” value with mouse skin punch wounds (200 ug sAgrin vs collagen or BSA, 12 days) is “significantly accelerated wound healing when compared to similar concentrations of collagen or BSA”. For the same molecule, the “pMLC expression in wound edges and beds under MMP12 depletion” value with mouse skin punch wounds (MMP12 siRNA, 200 μg sAgrin) is given as “significantly attenuated in MMP12 depleted skin sections”. Also, the “sAgrin accelerated healing rates and re-epithelialization under MMP12 depletion” value with mouse skin punch wounds (MMP12 siRNA, 200 μg sAgrin, within 10 days) is given as “dramatically reduced upon MMP12 depletion”. In addition, in the assay with mouse skin punch wounds (day 10), the “CD-31 expressing blood vessels under MMP12 suppression” value is listed as “failed to induce robust CD-31 expressing blood vessels”; the “sAgrin induced mature and mixed collagen fiber deposition under MMP12 depletion” value is recorded as “significantly diminished upon MMP12 depletion”. In the assay on mouse skin punch wounds (day 10, vs BSA and Collagen), the “deposition of collagen fibers in wound beds” value was “higher deposition of mature and mixed collagen fibers”. Further, the “histology of wound area” value in the assay with mouse skin punch wounds (day 10 post-wounding, vs BSA or Collagen) is on record as “predominantly represented healed skin with the emergence of regenerated hair follicles”. The “number of blood vessels and their diameters” value in the assay with mouse skin punch wounds (day 12 post-injury, vs BSA or Collagen) is “increased number of blood vessels and their diameters”.
